Measured values taken from the supplement of paper PMC9233669.
Fewer inactive variants are shown than the library holds.

Key:
biotinyl-Ile-oxazolone = assay: self-aminoacylation, catalytic enhancement (BIO) (fold over background); higher = more active; k-Seq, kA / k0A0; sequences stand for … in GGGAAUGGAUCCACAUCUACGAAUUC…UUCACUGCAGACUUGACGAAGCUG
Procedure, shortened: (§1)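 Working in 50 μL HEPES/NaCl/KCl/MgCl2/CaCl2 buffer with 5% acetonitrile at pH 6.9–7.0, mutagenized RNA pools (0.43 μM; 21-nt variable region) were reacted with 2–1250 μM of each biotinyl-aminoacyl-oxazolone for 90 minutes at room temperature. Streptavidin capture followed, with quantification by triplicate qPCR and Illumina sequencing. Catalytic enhancement is reported as median kA over the uncatalyzed rate, the low-activity peak of a bimodal Gaussian fit to the data.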

biotinyl-Val-oxazolone = assay: self-aminoacylation, catalytic enhancement (BVO) (fold over background); higher = more active; k-Seq, kA / k0A0; sequences stand for … in GGGAAUGGAUCCACAUCUACGAAUUC…UUCACUGCAGACUUGACGAAGCUG
Procedure, shortened: as §1

biotinyl-Met-oxazolone = assay: self-aminoacylation, catalytic enhancement (BMO) (fold over background); higher = more active; k-Seq, kA / k0A0; sequences stand for … in GGGAAUGGAUCCACAUCUACGAAUUC…UUCACUGCAGACUUGACGAAGCUG
Procedure, shortened: as §1

biotinyl-Phe-oxazolone = assay: self-aminoacylation, catalytic enhancement (BFO) (fold over background); higher = more active; k-Seq, kA / k0A0; sequences stand for … in GGGAAUGGAUCCACAUCUACGAAUUC…UUCACUGCAGACUUGACGAAGCUG
Procedure, shortened: as §1

biotinyl-Trp-oxazolone = assay: self-aminoacylation, catalytic enhancement (BWO) (fold over background); higher = more active; k-Seq, kA / k0A0; sequences stand for … in GGGAAUGGAUCCACAUCUACGAAUUC…UUCACUGCAGACUUGACGAAGCUG
Procedure, shortened: as §1

biotinyl-Leu-oxazolone = assay: self-aminoacylation, catalytic enhancement (BLO) (fold over background); higher = more active; k-Seq, kA / k0A0; sequences stand for … in GGGAAUGGAUCCACAUCUACGAAUUC…UUCACUGCAGACUUGACGAAGCUG
Procedure, shortened: as §1

Sequence	self-aminoacylation (biotinyl-Ile-oxazolone)	self-aminoacylation (biotinyl-Val-oxazolone)	self-aminoacylation (biotinyl-Met-oxazolone)	self-aminoacylation (biotinyl-Phe-oxazolone)	self-aminoacylation (biotinyl-Trp-oxazolone)	self-aminoacylation (biotinyl-Leu-oxazolone)
CUACUUUAAACAAUCGGGCUG [Fam1A.1 aminoacylation ribozyme variant]	1.2	1.06	1.25	0.648	0.746	1.07
CCACACUUCAAACAAUCCGUC [Fam1B.1 aminoacylation ribozyme variant]	0.83	0.993	0.559	1.35	1.2	0.682
AUUCACCUUGUUCAUCGGGUG [Fam2.2 aminoacylation ribozyme variant]	2.01	2.42	2.72	15.2	2.91	3.38
AUUCGCCUAGCUCAUCGGGUG [Fam2.2 aminoacylation ribozyme variant]	2.6	2.59	2.28	12.7	2.87	2.99
CCACACUUAAAGCAAUCGGUG [Fam1B.1 aminoacylation ribozyme variant]	2.75	2.42	3.87	26	4.42	4.31
AUUACCGUGGUCAUCCAGUGA [Fam2.1 aminoacylation ribozyme variant]	3.52	3.32	5.39	28.8	6.67	5.29
AUUACCCUGGUCAUCGUGGGA [Fam2.1 aminoacylation ribozyme variant]	1.18	1.22	1.33	4.91	1.98	1.58
ACACACUUCAAGCAUUCGGUC [Fam1B.1 aminoacylation ribozyme variant]	1.81	1.87	1.68	1.5	2.13	1.8
GCACACUUCAAGCAAUCGGUG [Fam1B.1 aminoacylation ribozyme variant]	6.23	5.92	8.09	49.1	10.1	10.3
AUUACACUGGUCAUCGAGGGA [Fam2.1 aminoacylation ribozyme variant]	1.64	1.37	1.26	0.709	2.72	1.4
GUUACCCUGGUCAUCGAGUGA [Fam2.1 aminoacylation ribozyme variant]	35.2	38.3	99	747	101	100
CUCCACCUAGGUCAUCGGGUG [Fam2.2 aminoacylation ribozyme variant]	3.95	5.19	5.98	36.3	7.04	5.74
AUUCACCGAGGUUAUCGGGUG [Fam2.2 aminoacylation ribozyme variant]	4.28	5.85	7.16	87.3	7.66	10
AUUCACCAAGGUCAUUGGGUG [Fam2.2 aminoacylation ribozyme variant]	4.07	4.54	6.78	49.8	6.53	9.21
AUUCAGCUAGUUCAUCGGGUG [Fam2.2 aminoacylation ribozyme variant]	5.34	4.95	7.01	52.3	7.26	9.16
CCAGACUUUAAGCAAUCGGUC [Fam1B.1 aminoacylation ribozyme variant]	1.11	0.922	0.874	1.04	0.821	0.94
CUACUUCAAACCAUCGGACUG [Fam1A.1 aminoacylation ribozyme variant]	0.8	0.873	0.669	0.578	0.444	0.747
AUUACACUGGUUAUCGAGUGA [Fam2.1 aminoacylation ribozyme variant]	4.23	3.72	7.64	45.5	10.3	8.73
AUUACUGUGGUCAUCGAGUGA [Fam2.1 aminoacylation ribozyme variant]	2.65	2.56	4.65	14.1	5.16	4.25
CCACACUGCAAGCGAUCGGUC [Fam1B.1 aminoacylation ribozyme variant]	1.27	1.57	1.19	1.13	1.43	1.15
AUUCACCUGGGUCCUCGGGUG [Fam2.2 aminoacylation ribozyme variant]	4.33	4.67	6.49	39	6.22	7.74
AUACUUCAAACAAUCGAUCUG [Fam1A.1 aminoacylation ribozyme variant]	0.684	0.59	0.535	0.915	0.648	0.485
CCACAUUUCAAGCUAUCGGUC [Fam1B.1 aminoacylation ribozyme variant]	1.4	1.33	1.1	1.03	1.03	1.16
AUAACCCUGGUAAUCGAGUGA [Fam2.1 aminoacylation ribozyme variant]	3.97	3.58	7.93	42.6	9.38	8.57
AUUAUCCUGGUCAACGAGUGA [Fam2.1 aminoacylation ribozyme variant]	3.69	3.87	6.62	30.1	7.67	8.02
CCAUACUUCAAGCAAUCGGUG [Fam1B.1 aminoacylation ribozyme variant]	4.16	4.3	5.58	24.4	6.14	8.33
